Test results from publication PMC4468108.

Assays:
DsRmCh [1] = target: DsRmCh (UniProt Q9U6Y8); experiment: SEC; Superdex 75 10/300, 100 μl of purified protein, absorbance at 575 nm
DsRmCh [2] = target: DsRmCh (UniProt Q9U6Y8); experiment: AUC; sedimentation velocity, 40,000 RPM overnight, PBS pH 7.4, sample diluted to A575 of 0.5, c(m) distribution in Sedfit
DsRmChΔ5 = DsRmChΔ5 (UniProt Q9U6Y8); experiment: as above

Substance | stoichiometry N (DsRmCh [1]) | stoichiometry N (DsRmCh [2]) | stoichiometry N (DsRmChΔ5)
DsRmCh (from UniProt Q9U6Y8 1-225) | 4 | 4 | –
DsRmChΔ5 (from UniProt Q9U6Y8 1-220) | – | – | 4
